Experimental data published in patent publication US20140087995A1 (published 2014).
Numbered stars: 1 amine (or outer) side, 2 acyl side, 3 side chain; on linkers, the order of the positions; unused ones are H or OH. Bridge positions count the residues as written; N and C are the ends. Side chains are listed from the residue outwards. Ends that are not written are not given here. * marks the point of attachment. C20 diacid = O=C(O)CCCCCCCCCCCCCCCCCCC(=O)*; γGlu = O=C(O)[C@H](CCC(=O)[*:2])N[*:1]; AEEA = NCCOCCOCC(=O)O

Columns and labels:
[1] = target: T1, human amylin 3(a) receptor (human calcitonin receptor co-expressed with RAMP-3) (human, UniProt P30988 25-474; O60896 24-148, limits assumed); assay: cell-based or functional assay
T1 sequence (looked up) 1: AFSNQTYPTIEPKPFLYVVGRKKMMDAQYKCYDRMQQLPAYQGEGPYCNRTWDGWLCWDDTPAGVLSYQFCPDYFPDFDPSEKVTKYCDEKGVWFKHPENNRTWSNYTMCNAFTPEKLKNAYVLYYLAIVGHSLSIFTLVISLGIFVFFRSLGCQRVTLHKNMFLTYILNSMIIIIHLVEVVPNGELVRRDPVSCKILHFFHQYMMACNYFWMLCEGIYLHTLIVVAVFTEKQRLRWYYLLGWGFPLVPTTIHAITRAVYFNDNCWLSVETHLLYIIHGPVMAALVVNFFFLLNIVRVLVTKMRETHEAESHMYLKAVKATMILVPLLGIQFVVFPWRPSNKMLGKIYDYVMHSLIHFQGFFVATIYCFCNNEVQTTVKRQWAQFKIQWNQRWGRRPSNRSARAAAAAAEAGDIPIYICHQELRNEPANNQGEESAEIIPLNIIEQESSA
T1 sequence (looked up) 2: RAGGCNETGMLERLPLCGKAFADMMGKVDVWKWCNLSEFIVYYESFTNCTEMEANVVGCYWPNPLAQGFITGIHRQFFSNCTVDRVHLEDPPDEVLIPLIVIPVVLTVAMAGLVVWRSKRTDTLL

[2] = target: T2, human calcitonin receptor (human, UniProt P30988 25-474); assay: ratio of hCTR IC50 to hAmylin-R IC50 (reference: human amylin receptor)
T2 construct: whole, on cells; Used as cell membranes; also called hCTR; hCT
T2 sequence (looked up): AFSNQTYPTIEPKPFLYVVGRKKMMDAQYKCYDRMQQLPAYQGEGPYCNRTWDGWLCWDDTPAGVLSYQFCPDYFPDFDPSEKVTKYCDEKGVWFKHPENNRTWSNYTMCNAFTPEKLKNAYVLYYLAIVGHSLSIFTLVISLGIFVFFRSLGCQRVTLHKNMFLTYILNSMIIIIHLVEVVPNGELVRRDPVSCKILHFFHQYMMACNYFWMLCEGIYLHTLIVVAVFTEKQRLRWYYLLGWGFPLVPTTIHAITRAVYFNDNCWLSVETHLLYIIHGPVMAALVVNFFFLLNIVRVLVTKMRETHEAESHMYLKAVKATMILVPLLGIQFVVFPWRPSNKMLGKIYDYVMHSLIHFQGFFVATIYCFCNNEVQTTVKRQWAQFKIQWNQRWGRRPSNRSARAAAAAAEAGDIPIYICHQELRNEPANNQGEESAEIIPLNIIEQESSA
Method: The resulting pellet was resuspended, homogenized and centrifuged (20.000 rpm, 15 min) in a buffer containing 20 mM Na-HEPES and 0.1 mM EDTA (pH 7.4, buffer 2). The resulting pellet was resuspended in buffer 2 and protein concentration was measured (BCA protein Assay, Pierce). The homogenate was kept cold during the whole procedure. The membranes were kept at −80° C. until use. The assay was performed in a 384 well Optiplate (PerkinElmer) in a total volume of 40 ul. Membranes were mixed with SPA beads. Final concentration of membranes 35 ng/μL final and SPA beads was 0.05 mg/well. Test-compounds were dissolved in DMSO and further diluted in assay buffer (50 mM Hepes, pH 7.4, 1 mM CaCl2, 5 mM MgCl₂, 0.1% OA and 0.02% Tween20). […] The final mixture was incubated with shaking at 400 rpm for 120 min at 25° C. prior to centrifugation (1500 rpm, 10 min). Samples were analyzed on TopCounter™ (Packard). The IC₅₀ was calculated using (one site binding competition analysis) GraphPad Prism5 as a measure of receptor affinity.
Membranes were prepared in the following way; the cells were rinsed with PBS and incubated with Versene for approximately 5 min before harvesting. The cells were flushed with PBS and the cell-suspension was centrifuged for 5 min at 1000 rpm. Cells were homogenized (Ultrathurrax) in a buffer containing 20 mM Na-HEPES and 10 mM EDTA (pH 7.4) and centrifuged at 20.000 rpm for 15 min. The resulting pellet was resuspended, homogenized and centrifuged (20.000 rpm, 15 min) in a buffer containing 20 mM Na-HEPES and 0.1 mM EDTA (pH 7.4, buffer 2). The resulting pellet was resuspended in buffer 2 and protein concentration was measured (BCA protein Assay, Pierce). The homogenate was kept cold during the whole procedure. The membranes were kept at −80° C. until use. Assay was performed in a 384 well Optiplate (PerkinElmer) in a total volume of 40 ul. Membranes were mixed with SPA beads.

[3] = target: T2, human calcitonin receptor; assay: SPA competition on BHK cell membranes, 125I-calcitonin as radioligand (Assay VII)
Method: Membranes were prepared in the following way; the cells were rinsed with PBS and incubated with Versene for approximately 5 min before harvesting. The cells were flushed with PBS and the cell-suspension was centrifuged for 5 min at 1000 rpm. Cells were homogenized (Ultrathurrax) in a buffer containing 20 mM Na-HEPES and 10 mM EDTA (pH 7.4) and centrifuged at 20.000 rpm for 15 min. The resulting pellet was resuspended, homogenized and centrifuged (20.000 rpm, 15 min) in a buffer containing 20 mM Na-HEPES and 0.1 mM EDTA (pH 7.4, buffer 2). The resulting pellet was resuspended in buffer 2 and protein concentration was measured (BCA protein Assay, Pierce). The homogenate was kept cold during the whole procedure. The membranes were kept at −80° C. until use. Assay was performed in a 384 well Optiplate (PerkinElmer) in a total volume of 40 ul. Membranes were mixed with SPA beads. Final concentration of membranes 35 ng/μL final and Final concentration of SPA beads was 0.05 mg/well. Test-compounds were dissolved in DMSO and further diluted in assay buffer (50 mM Hepes, pH 7.4, 1 mM CaCl2, 5 mM MgCl₂, 0.1% OA and 0.02% Tween20). […] The final mixture was incubated for 120 min with shaking at 400 rpm at 25° C. prior to centrifugation (1500 rpm, 10 min). Samples were analyzed on TopCounter™ (Packard). The […] was calculated using (one site binding competition analysis) GraphPad Prism5 as a measure of receptor affinity.

Binder	Ratio hCT/hAmylin funct. (hCTR EC50 over hAmylin-R EC50) [1]	hAmylin-R funct. EC50 (pM) [1] [pM]	Ratio hCT/hAmylin binding [2]	IC50 [3] [nM]
K([γGlu-C20 diacid])CNTATCATQRLANFLRHSSPNFGAIPSSTNVGSNTY-NH2 (disulfide 2-7; N-terminus assumed; SMILES CC[C@H](C)[C@H](NC(=O)[C@H](C)NC(=O)CNC(=O)[C@H](Cc1ccccc1)NC(=O)[C@H](CC(N)=O)NC(=O)[C@@H]1CCCN1C(=O)[C@H](CO)NC(=O)[C@H](CO)NC(=O)[C@H](Cc1c[nH]cn1)NC(=O)[C@H](CCCNC(=N)N)NC(=O)[C@H](CC(C)C)NC(=O)[C@H](Cc1ccccc1)NC(=O)[C@H](CC(N)=O)NC(=O)[C@H](C)NC(=O)[C@H](CC(C)C)NC(=O)[C@H](CCCNC(=N)N)NC(=O)[C@H](CCC(N)=O)NC(=O)[C@@H](NC(=O)[C@H](C)NC(=O)[C@@H]1CSSC[C@H](NC(=O)[C@@H](N)CCCCNC(=O)CC[C@H](NC(=O)CCCCCCCCCCCCCCCCCCC(=O)O)C(=O)O)C(=O)N[C@@H](CC(N)=O)C(=O)N[C@@H]([C@@H](C)O)C(=O)N[C@@H](C)C(=O)N[C@@H]([C@@H](C)O)C(=O)N1)[C@@H](C)O)C(=O)N1CCC[C@H]1C(=O)N[C@@H](CO)C(=O)N[C@@H](CO)C(=O)N[C@H](C(=O)N[C@@H](CC(N)=O)C(=O)N[C@H](C(=O)NCC(=O)N[C@@H](CO)C(=O)N[C@@H](CC(N)=O)C(=O)N[C@H](C(=O)N[C@@H](Cc1ccc(O)cc1)C(N)=O)[C@@H](C)O)C(C)C)[C@@H](C)O, also called compound 48) [N^ε1-[(4S)-4-carboxy-4-(19-carboxynonadecanoylamino)butanoyl]-[Arg17,Pro21,Pro27]-h-amylin]	17	116	–	–
K([AEEA-γGlu-C20 diacid])CNTATCATQRLANFLRHSSPNFGAIPSSTNVGHNTY-NH2 (disulfide 2-7; N-terminus assumed; SMILES CC[C@H](C)[C@H](NC(=O)[C@H](C)NC(=O)CNC(=O)[C@H](Cc1ccccc1)NC(=O)[C@H](CC(N)=O)NC(=O)[C@@H]1CCCN1C(=O)[C@H](CO)NC(=O)[C@H](CO)NC(=O)[C@H](Cc1c[nH]cn1)NC(=O)[C@H](CCCNC(=N)N)NC(=O)[C@H](CC(C)C)NC(=O)[C@H](Cc1ccccc1)NC(=O)[C@H](CC(N)=O)NC(=O)[C@H](C)NC(=O)[C@H](CC(C)C)NC(=O)[C@H](CCCNC(=N)N)NC(=O)[C@H](CCC(N)=O)NC(=O)[C@@H](NC(=O)[C@H](C)NC(=O)[C@@H]1CSSC[C@H](NC(=O)[C@@H](N)CCCCNC(=O)COCCOCCNC(=O)CC[C@H](NC(=O)CCCCCCCCCCCCCCCCCCC(=O)O)C(=O)O)C(=O)N[C@@H](CC(N)=O)C(=O)N[C@@H]([C@@H](C)O)C(=O)N[C@@H](C)C(=O)N[C@@H]([C@@H](C)O)C(=O)N1)[C@@H](C)O)C(=O)N1CCC[C@H]1C(=O)N[C@@H](CO)C(=O)N[C@@H](CO)C(=O)N[C@H](C(=O)N[C@@H](CC(N)=O)C(=O)N[C@H](C(=O)NCC(=O)N[C@@H](Cc1c[nH]cn1)C(=O)N[C@@H](CC(N)=O)C(=O)N[C@H](C(=O)N[C@@H](Cc1ccc(O)cc1)C(N)=O)[C@@H](C)O)C(C)C)[C@@H](C)O, also called compound 76)	–	–	80	17.2

Continued, values first:

Ratio hCT/hAmylin funct. (hCTR EC50 over hAmylin-R EC50) [1]	hAmylin-R funct. EC50 (pM) [1] [pM]	Ratio hCT/hAmylin binding [2]	IC50 [3] [nM]	Binder
17	594	–	–	K([AEEA-γGlu-C20 diacid])RCNTATCATQRLANFLRHSSPNFGAIPSSTNVGSHTY-NH2 (disulfide 3-8; N-terminus assumed; SMILES CC[C@H](C)[C@H](NC(=O)[C@H](C)NC(=O)CNC(=O)[C@H](Cc1ccccc1)NC(=O)[C@H](CC(N)=O)NC(=O)[C@@H]1CCCN1C(=O)[C@H](CO)NC(=O)[C@H](CO)NC(=O)[C@H](Cc1c[nH]cn1)NC(=O)[C@H](CCCNC(=N)N)NC(=O)[C@H](CC(C)C)NC(=O)[C@H](Cc1ccccc1)NC(=O)[C@H](CC(N)=O)NC(=O)[C@H](C)NC(=O)[C@H](CC(C)C)NC(=O)[C@H](CCCNC(=N)N)NC(=O)[C@H](CCC(N)=O)NC(=O)[C@@H](NC(=O)[C@H](C)NC(=O)[C@@H]1CSSC[C@H](NC(=O)[C@H](CCCNC(=N)N)NC(=O)[C@@H](N)CCCCNC(=O)COCCOCCNC(=O)CC[C@H](NC(=O)CCCCCCCCCCCCCCCCCCC(=O)O)C(=O)O)C(=O)N[C@@H](CC(N)=O)C(=O)N[C@@H]([C@@H](C)O)C(=O)N[C@@H](C)C(=O)N[C@@H]([C@@H](C)O)C(=O)N1)[C@@H](C)O)C(=O)N1CCC[C@H]1C(=O)N[C@@H](CO)C(=O)N[C@@H](CO)C(=O)N[C@H](C(=O)N[C@@H](CC(N)=O)C(=O)N[C@H](C(=O)NCC(=O)N[C@@H](CO)C(=O)N[C@@H](Cc1c[nH]cn1)C(=O)N[C@H](C(=O)N[C@@H](Cc1ccc(O)cc1)C(N)=O)[C@@H](C)O)C(C)C)[C@@H](C)O, 38 residues; also called compound 45)
–	–	42.2	2.57	K([AEEA-C20 diacid])CNTATCATQRLAHFLRHSSPNFGAIPSSTNVGSNTY-NH2 (disulfide 2-7; N-terminus assumed; SMILES CC[C@H](C)[C@H](NC(=O)[C@H](C)NC(=O)CNC(=O)[C@H](Cc1ccccc1)NC(=O)[C@H](CC(N)=O)NC(=O)[C@@H]1CCCN1C(=O)[C@H](CO)NC(=O)[C@H](CO)NC(=O)[C@H](Cc1c[nH]cn1)NC(=O)[C@H](CCCNC(=N)N)NC(=O)[C@H](CC(C)C)NC(=O)[C@H](Cc1ccccc1)NC(=O)[C@H](Cc1c[nH]cn1)NC(=O)[C@H](C)NC(=O)[C@H](CC(C)C)NC(=O)[C@H](CCCNC(=N)N)NC(=O)[C@H](CCC(N)=O)NC(=O)[C@@H](NC(=O)[C@H](C)NC(=O)[C@@H]1CSSC[C@H](NC(=O)[C@@H](N)CCCCNC(=O)COCCOCCNC(=O)CCCCCCCCCCCCCCCCCCC(=O)O)C(=O)N[C@@H](CC(N)=O)C(=O)N[C@@H]([C@@H](C)O)C(=O)N[C@@H](C)C(=O)N[C@@H]([C@@H](C)O)C(=O)N1)[C@@H](C)O)C(=O)N1CCC[C@H]1C(=O)N[C@@H](CO)C(=O)N[C@@H](CO)C(=O)N[C@H](C(=O)N[C@@H](CC(N)=O)C(=O)N[C@H](C(=O)NCC(=O)N[C@@H](CO)C(=O)N[C@@H](CC(N)=O)C(=O)N[C@H](C(=O)N[C@@H](Cc1ccc(O)cc1)C(N)=O)[C@@H](C)O)C(C)C)[C@@H](C)O, also called compound 90) [N^ε1-[2-[2-[2-(19-carboxynonadecanoylamino)ethoxy]ethoxy]acetyl]-[His14,Arg17,Pro21,Pro27]-h-amylin]
